Source: article PMC5374420, “In Search of Small Molecule Inhibitors Targeting the Flexible CK2 Subunit Interface” (Pharmaceuticals, 2017)

Biological target: T1, CK2α of MCF-10A cells (human (endogenous in MCF-10A), UniProt P68400 1-391)
T1 construct: protein kinase CK2 catalytic subunit alpha, endogenous; also called free CK2α subunit; source: endogenous, MCF-10A cells and cell extracts (WT or CK2β-depleted)
Experiment: thermal shift assay in cell lysates; CK2β-depleted MCF-10A cell lysates (50 mM Tris-HCl pH 7.5, 150 mM NaCl, 2% glycerol) with 50 µM TAT or TAT-Pc 13, or PBS or CK2β, 30 min at room temperature; aliquots heated 3 min; CK2 activity of the supernatants
Conditions: one partner purified

T1 sequence (P68400 whole entry): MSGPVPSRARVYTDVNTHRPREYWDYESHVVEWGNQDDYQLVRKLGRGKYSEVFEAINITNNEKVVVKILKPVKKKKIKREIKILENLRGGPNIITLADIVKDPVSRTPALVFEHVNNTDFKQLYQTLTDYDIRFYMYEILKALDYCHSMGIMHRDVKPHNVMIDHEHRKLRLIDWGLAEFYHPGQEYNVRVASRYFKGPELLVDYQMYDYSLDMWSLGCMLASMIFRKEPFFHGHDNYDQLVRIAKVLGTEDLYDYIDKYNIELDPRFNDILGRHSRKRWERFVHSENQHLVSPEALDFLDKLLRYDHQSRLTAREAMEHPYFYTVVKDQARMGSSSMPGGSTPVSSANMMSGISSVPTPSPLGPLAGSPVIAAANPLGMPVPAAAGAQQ

B1: recombinant CK2β (natural protein)
chain: not shown
notes: protein kinase CK2 regulatory subunit beta; also called protein kinase CK2 regulatory β subunit
With B1 the “shift of the melting curve” value was 3 °C.
